Measurements from publication PMC10813790, “Lymphocyte-Specific Protein 1 Regulates Expression and Stability of Endothelial Nitric Oxide Synthase” (Biomolecules, 2024).

Target: the molecule itself
Experiment: low-temperature SDS-PAGE; aorta lysates of WT and LSP1-KO mice in NP40-based non-denaturing buffer (crude or after eNOS immunoprecipitation), not boiled, no reducing agent, 7% gel at 4 °C; anti-eNOS immunoblot; dimer to monomers

B1: endothelial nitric oxide synthase (eNOS), mouse, native (enzyme, mouse (endogenous in aorta), UniProt P70313 1-1202, looked up)
chain: MGNLKSVGQEPGPPCGLGLGLGLGLCGKQGPASPAPEPSQAPAPPSPTRPAPDHSPPLTRPPDGPRFPRVKNWEVGSITYDTLSAQAQQDGPCTSRRCLGSLVFPRKLQSRPTQGPSPTEQLLGQARDFINQYYNSIKRSGSQAHEQRLQEVEAEVAATGTYQLRESELVFGAKQAWRNAPRCVGRIQWGKLQVFDARDCRTAQEMFTYICNHIKYATNRGNLRSAITVFPQRCPGRGDFRIWNSQLIRYAGYRQQDGSVRGDPANVEITELCIQHGWTPGNGRFDVLPLLLQAPDEPPELFTLPPEMVLEVPLEHPTLEWFAALGLRWYALPAVSNMLLEIGGLEFPAAPFSGWYMSSEIGMRDLCDPHRYNILEDVAVCMDLDTRTTSSLWKDKAAVEINVAVLHSYQLAKVTIVDHHAATASFMKHLENEQKARGGCPADWAWIVPPISGSLTPVFHQEMVNYFLSPAFRYQPDPWKGSAAKGAGITRKKTFKEVANAVKISASLMGTVMAKRVKATILYGSETGRAQSYAQQLGRLFRKAFDPRVLCMDEYDVVSLEHEALVLVVTSTFGNGDPPENGESFAAALMEMSGPYNSSPRPEQHKSYKIRFNSVSCSDPLVSSWRRKRKESSNTDSAGALGTLRFCVFGLGSRAYPHFCAFARAVDTRLEELGGERLLQLGQGDELCGQEEAFRGWAQAAFQAACETFCVGEDAKAAARDIFSPKRSWKRQRYRLSTQAESLQLLPGLTHVHRRKMFQATILSVENLQSSKSTRATILVRLDTGGQEGLQYQPGDHIGVCPPNRPGLVEALLSRVEDPPPSTEPVAVEQLEKGSPGGPPPGWVRDPRLPPCTLRQALTYFLDITSPPSPRLLRLLSTLAEESSEQQELEALSQDPRRYEEWKWFSCPTLLEVLEQFPSVALPAPLILTQLPLLQPRYYSVSSAPSAHPGEIHLTIAVLAYRTQDGLGPLHYGVCSTWMSQLKAGDPVPCFIRGAPSFRLPPDPNLPCILVGPGTGIAPFRGFWQDRLHDIEIKGLQPAPMTLVFGCRCSQLDHLYRDEVLDAQQRGVFGQVLTAFSRDPGSPKTYVQDLLRTELAAEVHRVLCLEQGHMFVCGDVTMATSVLQTVQRILATEGGMELDEAGDVIGVLRDQQRYHEDIFGLTLRTQEVTSRIRTQSFSLQERQLRGAVPWSFDPPGPEIPGS
notes: mouse endothelial nitric oxide synthase, native protein of the aorta; dimer band at 260 kDa; Written as the protomer, for the row of the protein with itself; also called mouse eNOS; WT eNOS; source: endogenous, aorta lysate of 129/SvJ wild-type mice (also LSP1-KO mice)
stoichiometry N: 2
